Assay results reported in article PMC6194269, “Structural and functional characterization of hMEX‐3C Ring finger domain as an E3 ubiquitin ligase” (Protein Science : A Publication of the Protein Society, 2018).

Target: the molecule itself
Experiment: SEC; GST fusion digested by TEV protease and loaded on an S75 column; molecular weight calculated from elution volume

B1: Ring finger domain of hMEX-3C (domain or fragment, human, UniProt Q5U5Q3 603-659, looked up)
chain: RRKHDCVICFENEVIAALVPCGHNLFCMECANKICEKRTPSCPVCQTAVTQAIQIHS
notes: two zinc ions per monomer; also called hMEX-3C Ring finger domain; hMEX-3C Ring homodimer; source: E. coli BL21 (DE3), purified (GST column, Superdex 75); GST fusion digested by TEV protease
stoichiometry N: 2
